The results in this text go back to US20130122545A1.

Data set [1] addresses Aspergillus niger 19 kDa protease (Aspergillus niger). In words: cell-based or functional assay.
The target in a further data set is T1, Z-LLE-MCA.
T1 chain: LLE

The target of a further data set is T2, Glt-AAF-MCA.
T2 chain: AAF

For the next data set, the target named is T3, Suc-LLVY-MCA.
T3 chain: LLVY

The next data set addresses T4, Suc(OMe)-AAPV-MCA.
T4 chain: AAPV

The next data set has as its target T5, Boc-FSR-MCA.
T5 chain: FSR

For the molecule leupeptin (peptide), the residual activity (%) in data set [1] is 89%.
On the same count and under the same terms, the same measure for pepstatin A (peptide): 91%.

B1: Aspergillus niger 19 kDa protease (protein)
chain: SPIPSYSRPGRGQHFQDAYGFAEACIAGDRMEIAGQTGMSPTSTEVPPTLEEEVAQAFNNINEVILYTLEKAKPDLRASVKSGWDRVVKIRTYHVQLPQTREKIIGLMVENVKKWCPDHQPTWTMLGIEALPFEGQNLEIEVDVFLG
B1: the “substrate specificity: increase of fluorescent strength, relative (column has no head)” value with Z-LLE-MCA was found to be 0.1%; with Glt-AAF-MCA, 1.6%; with Suc-LLVY-MCA, 100.0%; with Suc(OMe)-AAPV-MCA, 0.2%; with Boc-FSR-MCA it was 0.3%.
